Experimental data: patent US20250011363A1, “OPTIMIZED SHORTENED PEPTIDE THAT BINDS TO ACETYLCHOLINE RECEPTOR, AND USE THEREOF” (SKINMED CO., LTD., priority 2021, published 2025)

Target: acetylcholine receptor
Assay: SPR, receptor immobilized, peptide 10 uM

Binder | Binding affinity (RU) | Binding affinity [RU]
KRWFCK [6mer-1-168] | 131 | 
RRQQSK [6mer-1-169] | 153 | 
RKSFYR [6mer-1-170] | 148 | 
RKQFQK [6mer-1-171] | 123 | 
RRLIRK [6mer-1-172] | 153 | 
RKQYYR [6mer-1-173] | 123 | 
KKGVCR [6mer-1-174] | 154 | 
RRRIQK [6mer-1-175] | 137 | 
KKVYCK [6mer-1-176] | 121 | 
KRGYRR [6mer-1-177] | 121 | 
RKRYQK [6mer-1-178] | 139 | 
KRSQYR [6mer-1-179] | 148 | 
RKLVRK [6mer-1-180] | 146 | 
KKGVLR [6mer-1-181] | 148 | 
KRGICK [6mer-1-182] | 147 | 
KKGQTR [6mer-1-183] | 121 | 
KRQICR [6mer-1-184] | 139 | 
KRQLRK [6mer-1-185] | 153 | 
RRRVYK [6mer-1-186] | 147 | 

Binder | Binding affinity (RU) | Binding affinity [RU]
RKLFYK [6mer-1-187] | 139 | 
RKSLQK [6mer-1-188] | 122 | 
KKSYSK [6mer-1-189] | 137 | 
RKLYYR [6mer-1-190] | 153 | 
KKQILK [6mer-1-191] | 139 | 
KRQYQR [6mer-1-192] | 127 | 
KRVQLK [6mer-1-193] | 149 | 
RKWQRR [6mer-1-194] | 144 | 
KRGISR [6mer-1-195] | 122 | 
RKWRRK [6mer-1-196] | 142 | 
RRSIRR [6mer-1-197] | 139 | 
KRLFCR [6mer-1-198] | 148 | 
KKQVQK [6mer-1-199] | 151 | 
RKLYQR [6mer-1-200] | 142 | 
RRRIQR [6mer-1-201] | 151 | 
KVFCKK [6mer-2-137] |  | 135
KQRRRK [6mer-2-138] |  | 153
KLFRKK [6mer-2-139] |  | 149
KGRLKK [6mer-2-140] |  | 142

Binder | Binding affinity (RU) | Binding affinity [RU]
KWYQKK [6mer-2-141] |  | 154
RWVLRR [6mer-2-142] |  | 121
RRVCRR [6mer-2-143] |  | 128
KSIRRK [6mer-2-144] |  | 133
RQYYKK [6mer-2-145] |  | 128
KQLLKR [6mer-2-146] |  | 135
RQYTKR [6mer-2-147] |  | 133
KGQYKK [6mer-2-148] |  | 145
KGQQRK [6mer-2-149] |  | 127
KRILKR [6mer-2-150] |  | 136
KQLRKR [6mer-2-151] |  | 142
RQFYKR [6mer-2-152] |  | 139
RVYSRR [6mer-2-153] |  | 124
KRVTKR [6mer-2-154] |  | 148
KGVYKK [6mer-2-155] |  | 139
KGLQRR [6mer-2-156] |  | 127
RSYRKK [6mer-2-157] |  | 153
RSFLRR [6mer-2-158] |  | 145
RQYYRK [6mer-2-159] |  | 127
